In this test the target is Ub-aminomethylcoumarin (Ub-AMC) (UniProt P0CG47).

Sequence of BAP1N (1-240), wild-type catalytic domain of BAP1 (Q92560 1-240): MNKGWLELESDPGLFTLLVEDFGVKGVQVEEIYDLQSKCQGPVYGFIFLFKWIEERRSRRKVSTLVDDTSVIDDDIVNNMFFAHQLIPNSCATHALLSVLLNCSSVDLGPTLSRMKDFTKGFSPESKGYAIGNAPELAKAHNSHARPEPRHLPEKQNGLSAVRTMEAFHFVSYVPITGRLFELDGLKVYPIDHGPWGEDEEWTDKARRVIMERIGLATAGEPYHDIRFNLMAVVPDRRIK

As for “BAP1N (1-240), wild-type catalytic domain of BAP1 (from UniProt Q92560 1-240) (domain or fragment)”, the Km of Ub-AMC hydrolysis by BAP1N (250 pM enzyme, 100 nM-7.5 µM Ub-AMC, 25°C, double-reciprocal plot) stood at 2.9 µM.

For the origin of these results see publication PMC5665613.
